{"source": "paper PMC9482650", "about": "“Quantitative fragmentomics allow affinity mapping of interactomes” (Nature Communications, 2022)", "data": [{"target": "T1, ARHGAP21, Q5T5U3", "T1 sequence (Q5T5U3 45-169, limits assumed, looked up)": "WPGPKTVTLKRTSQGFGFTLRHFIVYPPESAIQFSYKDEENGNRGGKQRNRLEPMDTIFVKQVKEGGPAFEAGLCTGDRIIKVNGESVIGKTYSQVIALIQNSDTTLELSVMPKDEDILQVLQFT", "experiment": "holdup assay", "set-up": "key: below the threshold = too weak to quantify, mostly under pKd 3.1 to 4", "conditions": "plain residues with an end cap or a label only (N-terminal biotin on a linker: ado-ado)", "values": [{"binder": "ARGPPRESEV", "note": "[FAM110D, Q8TAY7]", "pKd": 3.8}]}, {"target": "T2, MPDZ_5, O75970", "T2 sequence (O75970 695-796, limits assumed, looked up)": "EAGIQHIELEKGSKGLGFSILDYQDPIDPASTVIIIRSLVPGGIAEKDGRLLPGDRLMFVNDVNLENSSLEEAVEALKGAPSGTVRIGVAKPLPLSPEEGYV", "experiment": "holdup assay", "set-up": "key: below the threshold = too weak to quantify, mostly under pKd 3.1 to 4", "conditions": "plain residues with an end cap or a label only (N-terminal biotin on a linker: ado-ado)", "values": [{"binder": "ARGPPRESEV", "note": "[FAM110D, Q8TAY7]", "pKd": "below the threshold"}]}, {"target": "T3, MPDZ_10, O75970", "T3 sequence (O75970 1624-1722, limits assumed, looked up)": "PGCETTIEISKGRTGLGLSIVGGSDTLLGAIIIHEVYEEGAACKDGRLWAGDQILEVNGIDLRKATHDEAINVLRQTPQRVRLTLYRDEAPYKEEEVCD", "experiment": "holdup assay", "set-up": "key: below the threshold = too weak to quantify, mostly under pKd 3.1 to 4", "conditions": "plain residues with an end cap or a label only (N-terminal biotin on a linker: ado-ado)", "values": [{"binder": "ARGPPRESEV", "note": "[FAM110D, Q8TAY7]", "pKd": "below the threshold"}]}, {"target": "PICK1, Q9NRD5", "sequence (Q9NRD5 17-115)": "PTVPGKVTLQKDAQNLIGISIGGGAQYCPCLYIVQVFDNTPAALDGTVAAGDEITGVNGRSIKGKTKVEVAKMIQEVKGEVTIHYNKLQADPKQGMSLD", "experiment": "holdup assay", "set-up": "key: below the threshold = too weak to quantify, mostly under pKd 3.1 to 4", "conditions": "plain residues with an end cap or a label only (N-terminal biotin on a linker: ado-ado)", "values": [{"binder": "ARGPPRESEV", "note": "[FAM110D, Q8TAY7]", "pKd": "below the threshold"}]}, {"target": "T4, DLG3_3, Q92796", "T4 sequence (Q92796 374-475, limits assumed, looked up)": "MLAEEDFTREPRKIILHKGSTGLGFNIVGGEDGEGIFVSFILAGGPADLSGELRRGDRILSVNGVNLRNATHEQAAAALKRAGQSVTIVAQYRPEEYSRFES", "experiment": "holdup assay", "set-up": "key: below the threshold = too weak to quantify, mostly under pKd 3.1 to 4", "conditions": "plain residues with an end cap or a label only (N-terminal biotin on a linker: ado-ado)", "values": [{"binder": "ARGPPRESEV", "note": "[FAM110D, Q8TAY7]", "pKd": 4.48}]}, {"target": "PARD3_3, Q8TEW0", "sequence (Q8TEW0 582-685)": "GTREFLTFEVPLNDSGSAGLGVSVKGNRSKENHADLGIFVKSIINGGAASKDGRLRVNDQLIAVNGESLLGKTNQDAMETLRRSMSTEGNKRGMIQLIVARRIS", "experiment": "holdup assay", "set-up": "key: below the threshold = too weak to quantify, mostly under pKd 3.1 to 4", "conditions": "plain residues with an end cap or a label only (N-terminal biotin on a linker: ado-ado)", "values": [{"binder": "ARGPPRESEV", "note": "[FAM110D, Q8TAY7]", "pKd": "below the threshold"}]}, {"target": "SCRIB_2, Q14160", "sequence (Q14160 857-960)": "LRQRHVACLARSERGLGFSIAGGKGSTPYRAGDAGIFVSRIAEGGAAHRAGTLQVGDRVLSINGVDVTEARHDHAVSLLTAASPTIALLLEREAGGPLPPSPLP", "experiment": "holdup assay", "set-up": "key: below the threshold = too weak to quantify, mostly under pKd 3.1 to 4", "conditions": "plain residues with an end cap or a label only (N-terminal biotin on a linker: ado-ado)", "values": [{"binder": "ARGPPRESEV", "note": "[FAM110D, Q8TAY7]", "pKd": 4.9}]}, {"target": "NHERF4_2, Q86UT5", "sequence (Q86UT5 220-308)": "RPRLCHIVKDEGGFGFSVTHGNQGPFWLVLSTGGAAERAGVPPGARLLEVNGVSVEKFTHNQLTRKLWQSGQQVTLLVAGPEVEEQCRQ", "experiment": "holdup assay", "set-up": "key: below the threshold = too weak to quantify, mostly under pKd 3.1 to 4", "conditions": "plain residues with an end cap or a label only (N-terminal biotin on a linker: ado-ado)", "values": [{"binder": "ARGPPRESEV", "note": "[FAM110D, Q8TAY7]", "pKd": "below the threshold"}]}, {"target": "DLG4_1, P78352", "sequence (P78352 62-152)": "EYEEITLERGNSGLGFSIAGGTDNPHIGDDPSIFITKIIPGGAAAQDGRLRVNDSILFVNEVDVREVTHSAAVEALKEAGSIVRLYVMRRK", "experiment": "holdup assay", "set-up": "key: below the threshold = too weak to quantify, mostly under pKd 3.1 to 4", "conditions": "plain residues with an end cap or a label only (N-terminal biotin on a linker: ado-ado)", "values": [{"binder": "ARGPPRESEV", "note": "[FAM110D, Q8TAY7]", "pKd": 4.83}]}, {"target": "IL16_1, Q14005", "sequence (Q14005 210-306)": "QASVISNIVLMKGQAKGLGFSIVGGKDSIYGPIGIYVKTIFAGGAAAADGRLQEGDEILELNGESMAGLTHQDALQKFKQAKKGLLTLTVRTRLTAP", "experiment": "holdup assay", "set-up": "key: below the threshold = too weak to quantify, mostly under pKd 3.1 to 4", "conditions": "plain residues with an end cap or a label only (N-terminal biotin on a linker: ado-ado)", "values": [{"binder": "ARGPPRESEV", "note": "[FAM110D, Q8TAY7]", "pKd": 4.97}]}, {"target": "MAGI2_3, Q86UL8", "sequence (Q86UL8 600-682)": "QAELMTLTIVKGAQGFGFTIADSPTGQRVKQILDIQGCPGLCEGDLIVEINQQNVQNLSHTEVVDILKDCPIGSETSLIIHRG", "experiment": "holdup assay", "set-up": "key: below the threshold = too weak to quantify, mostly under pKd 3.1 to 4", "conditions": "plain residues with an end cap or a label only (N-terminal biotin on a linker: ado-ado)", "values": [{"binder": "ARGPPRESEV", "note": "[FAM110D, Q8TAY7]", "pKd": 3.53}]}, {"target": "T5, PDZD2_2, O15018", "T5 sequence (O15018 329-429, limits assumed, looked up)": "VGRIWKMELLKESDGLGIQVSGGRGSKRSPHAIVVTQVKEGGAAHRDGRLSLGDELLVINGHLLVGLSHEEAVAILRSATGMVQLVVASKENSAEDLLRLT", "experiment": "holdup assay", "set-up": "key: below the threshold = too weak to quantify, mostly under pKd 3.1 to 4", "conditions": "plain residues with an end cap or a label only (N-terminal biotin on a linker: ado-ado)", "values": [{"binder": "ARGPPRESEV", "note": "[FAM110D, Q8TAY7]", "pKd": 4.83}]}, {"target": "LDB3, O75112", "sequence (O75112 1-94)": "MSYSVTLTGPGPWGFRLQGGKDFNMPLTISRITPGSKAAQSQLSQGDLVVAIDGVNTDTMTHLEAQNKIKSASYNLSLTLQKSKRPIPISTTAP", "experiment": "holdup assay", "set-up": "key: below the threshold = too weak to quantify, mostly under pKd 3.1 to 4", "conditions": "plain residues with an end cap or a label only (N-terminal biotin on a linker: ado-ado)", "values": [{"binder": "ARGPPRESEV", "note": "[FAM110D, Q8TAY7]", "pKd": "below the threshold"}]}, {"target": "Inadl_4, Q8NI35", "sequence (Q8NI35 547-651)": "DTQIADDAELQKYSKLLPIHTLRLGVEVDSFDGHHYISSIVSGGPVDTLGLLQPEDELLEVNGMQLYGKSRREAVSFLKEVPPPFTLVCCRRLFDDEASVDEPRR", "experiment": "holdup assay", "set-up": "key: below the threshold = too weak to quantify, mostly under pKd 3.1 to 4", "conditions": "plain residues with an end cap or a label only (N-terminal biotin on a linker: ado-ado)", "values": [{"binder": "ARGPPRESEV", "note": "[FAM110D, Q8TAY7]", "pKd": "below the threshold"}]}, {"target": "NHERF2_2, Q15599", "sequence (Q15599 142-238)": "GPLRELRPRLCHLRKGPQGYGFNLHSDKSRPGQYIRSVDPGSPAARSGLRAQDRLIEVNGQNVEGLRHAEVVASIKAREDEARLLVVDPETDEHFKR", "experiment": "holdup assay", "set-up": "key: below the threshold = too weak to quantify, mostly under pKd 3.1 to 4", "conditions": "plain residues with an end cap or a label only (N-terminal biotin on a linker: ado-ado)", "values": [{"binder": "ARGPPRESEV", "note": "[FAM110D, Q8TAY7]", "pKd": "below the threshold"}]}, {"target": "MAST2, Q6P0Q8", "sequence (Q6P0Q8 1099-1202)": "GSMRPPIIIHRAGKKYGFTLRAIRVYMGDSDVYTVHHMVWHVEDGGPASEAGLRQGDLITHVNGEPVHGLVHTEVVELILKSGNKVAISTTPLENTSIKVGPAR", "experiment": "holdup assay", "set-up": "key: below the threshold = too weak to quantify, mostly under pKd 3.1 to 4", "conditions": "plain residues with an end cap or a label only (N-terminal biotin on a linker: ado-ado)", "values": [{"binder": "ARGPPRESEV", "note": "[FAM110D, Q8TAY7]", "pKd": 4.89}]}, {"target": "T6, NHERF3_1, Q5T2W1", "T6 sequence (Q5T2W1 4-100, limits assumed, looked up)": "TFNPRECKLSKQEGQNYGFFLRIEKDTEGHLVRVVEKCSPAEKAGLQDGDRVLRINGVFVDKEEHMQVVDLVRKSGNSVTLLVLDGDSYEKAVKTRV", "experiment": "holdup assay", "set-up": "key: below the threshold = too weak to quantify, mostly under pKd 3.1 to 4", "conditions": "plain residues with an end cap or a label only (N-terminal biotin on a linker: ado-ado)", "values": [{"binder": "ARGPPRESEV", "note": "[FAM110D, Q8TAY7]", "pKd": 4.03}]}, {"target": "GRIP2_3, Q9C0E4", "sequence (Q9C0E4 238-339)": "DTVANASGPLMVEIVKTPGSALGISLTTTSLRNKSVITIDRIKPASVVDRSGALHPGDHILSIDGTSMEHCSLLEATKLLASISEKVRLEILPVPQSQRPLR", "experiment": "holdup assay", "set-up": "key: below the threshold = too weak to quantify, mostly under pKd 3.1 to 4", "conditions": "plain residues with an end cap or a label only (N-terminal biotin on a linker: ado-ado)", "values": [{"binder": "ARGPPRESEV", "note": "[FAM110D, Q8TAY7]", "pKd": "below the threshold"}]}, {"target": "GRID2IP_2, A4D2P6", "sequence (A4D2P6 272-370)": "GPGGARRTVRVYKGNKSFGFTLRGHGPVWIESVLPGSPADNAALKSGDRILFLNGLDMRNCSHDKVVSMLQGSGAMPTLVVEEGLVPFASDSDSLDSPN", "experiment": "holdup assay", "set-up": "key: below the threshold = too weak to quantify, mostly under pKd 3.1 to 4", "conditions": "plain residues with an end cap or a label only (N-terminal biotin on a linker: ado-ado)", "values": [{"binder": "ARGPPRESEV", "note": "[FAM110D, Q8TAY7]", "pKd": "below the threshold"}]}, {"target": "GRIP2_5, Q9C0E4", "sequence (Q9C0E4 544-642)": "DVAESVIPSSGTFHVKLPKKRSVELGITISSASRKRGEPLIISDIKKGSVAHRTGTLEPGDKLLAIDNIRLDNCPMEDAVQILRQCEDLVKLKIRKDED", "experiment": "holdup assay", "set-up": "key: below the threshold = too weak to quantify, mostly under pKd 3.1 to 4", "conditions": "plain residues with an end cap or a label only (N-terminal biotin on a linker: ado-ado)", "values": [{"binder": "ARGPPRESEV", "note": "[FAM110D, Q8TAY7]", "pKd": "below the threshold"}]}, {"target": "T7, APBA1_2, Q02410", "T7 sequence (Q02410 742-832, limits assumed, looked up)": "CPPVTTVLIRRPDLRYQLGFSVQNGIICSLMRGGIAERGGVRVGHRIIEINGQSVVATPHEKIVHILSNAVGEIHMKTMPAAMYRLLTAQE", "experiment": "holdup assay", "set-up": "key: below the threshold = too weak to quantify, mostly under pKd 3.1 to 4", "conditions": "plain residues with an end cap or a label only (N-terminal biotin on a linker: ado-ado)", "values": [{"binder": "ARGPPRESEV", "note": "[FAM110D, Q8TAY7]", "pKd": 3.69}]}, {"target": "T8, MPP7, Q5T2T1", "T8 sequence (Q5T2T1 134-230, limits assumed, looked up)": "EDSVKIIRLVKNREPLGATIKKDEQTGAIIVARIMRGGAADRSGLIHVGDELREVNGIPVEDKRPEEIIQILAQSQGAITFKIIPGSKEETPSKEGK", "experiment": "holdup assay", "set-up": "key: below the threshold = too weak to quantify, mostly under pKd 3.1 to 4", "conditions": "plain residues with an end cap or a label only (N-terminal biotin on a linker: ado-ado)", "values": [{"binder": "ARGPPRESEV", "note": "[FAM110D, Q8TAY7]", "pKd": "below the threshold"}]}, {"target": "T9, APBA1_1, Q02410", "T9 sequence (Q02410 651-752, limits assumed, looked up)": "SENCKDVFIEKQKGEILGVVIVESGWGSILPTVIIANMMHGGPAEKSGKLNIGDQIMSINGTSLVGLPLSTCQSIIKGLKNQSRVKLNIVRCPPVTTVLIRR", "experiment": "holdup assay", "set-up": "key: below the threshold = too weak to quantify, mostly under pKd 3.1 to 4", "conditions": "plain residues with an end cap or a label only (N-terminal biotin on a linker: ado-ado)", "values": [{"binder": "ARGPPRESEV", "note": "[FAM110D, Q8TAY7]", "pKd": "below the threshold"}]}, {"target": "NOS1, P29475", "sequence (P29475 9-101)": "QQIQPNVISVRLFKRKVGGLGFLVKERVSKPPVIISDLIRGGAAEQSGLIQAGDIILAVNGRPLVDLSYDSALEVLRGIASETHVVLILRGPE", "experiment": "holdup assay", "set-up": "key: below the threshold = too weak to quantify, mostly under pKd 3.1 to 4", "conditions": "plain residues with an end cap or a label only (N-terminal biotin on a linker: ado-ado)", "values": [{"binder": "ARGPPRESEV", "note": "[FAM110D, Q8TAY7]", "pKd": 3.77}]}, {"target": "NHERF4_4, Q86UT5", "sequence (Q86UT5 464-550)": "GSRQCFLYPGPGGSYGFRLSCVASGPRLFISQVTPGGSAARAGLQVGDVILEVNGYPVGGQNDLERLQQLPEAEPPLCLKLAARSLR", "experiment": "holdup assay", "set-up": "key: below the threshold = too weak to quantify, mostly under pKd 3.1 to 4", "conditions": "plain residues with an end cap or a label only (N-terminal biotin on a linker: ado-ado)", "values": [{"binder": "ARGPPRESEV", "note": "[FAM110D, Q8TAY7]", "pKd": "below the threshold"}]}, {"target": "MAGI1_1, Q96QZ7", "sequence (Q96QZ7 1-106)": "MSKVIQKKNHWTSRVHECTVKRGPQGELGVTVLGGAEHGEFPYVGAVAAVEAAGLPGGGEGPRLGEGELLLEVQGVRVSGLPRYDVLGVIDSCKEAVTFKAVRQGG", "experiment": "holdup assay", "set-up": "key: below the threshold = too weak to quantify, mostly under pKd 3.1 to 4", "conditions": "plain residues with an end cap or a label only (N-terminal biotin on a linker: ado-ado)", "values": [{"binder": "ARGPPRESEV", "note": "[FAM110D, Q8TAY7]", "pKd": "below the threshold"}]}, {"target": "T10, TX1BP3, O14907", "T10 sequence (O14907 10-122, limits assumed, looked up)": "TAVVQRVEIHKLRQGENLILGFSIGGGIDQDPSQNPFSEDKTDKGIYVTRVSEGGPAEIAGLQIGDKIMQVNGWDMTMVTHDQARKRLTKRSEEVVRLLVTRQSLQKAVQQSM", "experiment": "holdup assay", "set-up": "key: below the threshold = too weak to quantify, mostly under pKd 3.1 to 4", "conditions": "plain residues with an end cap or a label only (N-terminal biotin on a linker: ado-ado)", "values": [{"binder": "ARGPPRESEV", "note": "[FAM110D, Q8TAY7]", "pKd": 5.24}]}]}
